Test in all cases: BLI
On the technique in general: In BLI a coated tip is dipped into the sample, and binding shifts an interference pattern.

The target in one data set is hPolεCD (insect) (Homo sapiens, UniProt Q07864 28-1194).
Data set [1] concerns the target T1, hPolεCD (E. coli) (Homo sapiens, UniProt Q07864 28-1194).
For data set [2], the target named is T1, hPolεCD (E. coli). This is another data set of the same source.

In article doi:10.1101/2022.05.05.490830 one finds Kd data, which are given here for one molecule.

Like-named read-outs stand apart in the source and are kept apart here.

In general, Kd refers to the free concentration of one partner at which half of the binding sites on the other are occupied at equilibrium, for simple one-to-one binding. A lower Kd goes with tighter binding.

T1 sequence (Q07864 28-1194): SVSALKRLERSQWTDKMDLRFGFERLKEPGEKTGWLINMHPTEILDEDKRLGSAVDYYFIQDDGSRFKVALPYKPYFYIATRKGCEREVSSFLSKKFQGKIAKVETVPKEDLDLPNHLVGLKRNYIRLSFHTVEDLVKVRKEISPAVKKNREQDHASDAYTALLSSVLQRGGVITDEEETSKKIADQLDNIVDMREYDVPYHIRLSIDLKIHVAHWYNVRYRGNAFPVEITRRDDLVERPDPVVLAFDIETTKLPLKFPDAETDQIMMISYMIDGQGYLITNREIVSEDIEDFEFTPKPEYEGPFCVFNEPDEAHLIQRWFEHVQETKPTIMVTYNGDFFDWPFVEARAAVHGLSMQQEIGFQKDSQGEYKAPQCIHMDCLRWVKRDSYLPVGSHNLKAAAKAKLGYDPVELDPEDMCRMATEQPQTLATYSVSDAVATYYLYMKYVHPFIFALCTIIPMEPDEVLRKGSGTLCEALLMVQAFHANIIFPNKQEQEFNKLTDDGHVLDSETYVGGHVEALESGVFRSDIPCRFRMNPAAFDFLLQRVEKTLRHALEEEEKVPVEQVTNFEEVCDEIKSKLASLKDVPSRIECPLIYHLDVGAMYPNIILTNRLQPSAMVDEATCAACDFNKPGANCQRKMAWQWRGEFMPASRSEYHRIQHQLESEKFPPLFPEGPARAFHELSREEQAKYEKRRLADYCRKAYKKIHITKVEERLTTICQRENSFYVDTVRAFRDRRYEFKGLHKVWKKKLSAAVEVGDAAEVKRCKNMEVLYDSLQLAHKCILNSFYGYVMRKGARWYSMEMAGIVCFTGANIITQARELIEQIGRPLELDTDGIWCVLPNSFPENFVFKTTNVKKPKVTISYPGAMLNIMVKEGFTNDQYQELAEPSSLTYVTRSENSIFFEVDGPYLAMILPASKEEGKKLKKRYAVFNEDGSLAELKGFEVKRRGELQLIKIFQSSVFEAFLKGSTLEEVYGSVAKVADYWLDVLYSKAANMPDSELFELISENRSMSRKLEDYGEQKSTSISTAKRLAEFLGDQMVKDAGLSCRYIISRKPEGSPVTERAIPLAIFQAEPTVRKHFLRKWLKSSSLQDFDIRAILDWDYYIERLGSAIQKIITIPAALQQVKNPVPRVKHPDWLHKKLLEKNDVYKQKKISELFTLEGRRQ
hPolεCD (insect), sequence (Q07864 28-1194): as above

B1: Octet template:primer 23/11 (dsDNA)
DNA 1: AATACATAAGCGCTCCAGGCAAT
DNA 2: GCCTGGAGCGC
modifications: 3' dideoxycytidine on primer
B1: the Kd with hPolεCD (insect) was found to be 213 ± 43 nM; in the data set with hPolεCD (E. coli) [1], 167 ± 24 nM; in the data set with hPolεCD (E. coli) [2] it was 3260 ± 386 nM.
